This note sets out measurements from PMC3520712, “Arabidopsis mutant sk156 reveals complex regulation of SPL15 in a miR156-controlled gene network”.

The series has as its target T1, SPL15 SBP domain (His-tagged) (Arabidopsis thaliana, UniProt Q9M2Q6 50-139).
T1 sequence: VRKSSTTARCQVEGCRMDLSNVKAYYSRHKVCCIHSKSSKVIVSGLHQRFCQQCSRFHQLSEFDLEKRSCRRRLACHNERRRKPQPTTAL
Put plainly: EMSA; ~500 ng protein, ~20 fmol DNA; displaced by 100-fold unlabeled N1; 10 mM Tris pH 7.5, 50 mM KCl, 5 mM MgCl (so in the source), 5 mM DTT, 2.5% glycerol, 0.05% NP-40, 25 C 30 min; 7.5% gel in 0.5x TBE at 4 C. The note with it: protein: recombinant; tags: His tag (pET28a, BamHI/SalI; 16.3 kD fusion); label: digoxigenin (DIG Gel Shift kit); blunt. In general terms: In EMSA bound probe runs differently from free probe, usually more slowly.

B1: miR156b promoter 46-mer (R156b-bx1) (dsDNA)
DNA 1: TAATTAGTGAAACTGTACAATGTACAATGTACCAATGCCATTAATG
DNA 2: CATTAATGGCATTGGTACATTGTACATTGTACAGTTTCACTAATTA
With B1, the binding result is on record as “binds”.
